Read-outs that look alike come from different tables or passages of the source.
How the values were obtained:
[1] = test system: amino acid at a terminal position of a polypeptide; conditions: amino acid identity at a terminal position of a polypeptide; phospho-Y also at an internal position; cited from earlier work
[2] = test system: peptide substrates; type: biochemical

B1: H. sapiens Fyn SH2 domain: amino acid recognition protein, SEQ ID NO: 22 (protein, listed as Homo sapiens)
chain: MGAMDSIQAEEWYFGKLGRKDAERQLLSFGNPRGTFLIRESETTKGAYSLSIRDWDDMKGDHVKHYKIRKLDNGGYYITTRAQFETLQQLVQHYSERAAGLSSRLVVPSHK
Binding Pref. [1]: phospho-Y

B2: UBR-box domain from Homo sapiens UBR1: amino acid recognition protein, SEQ ID NO: 32 (protein, listed as Homo sapiens)
chain: MGPLGSLCGRVFKSGETTYSCRDCAIDPTCVLCMDCFQDSVHKNHRYKMHTSTGGGFCDCGDTEAWKTGPFCVNHEP
Binding Pref. [1]: K, R, H

B3: Agrobacterium tumifaciens ClpS2: amino acid recognition protein, SEQ ID NO: 2 (protein, listed as Agrobacterium tumifaciens)
chain: MSDSPVDLKPKPKVKPKLERPKLYKVMLLNDDYTPREFVTVVLKAVFRMSEDTGRRVMMTAHRFGSAVVVVCERDIAETKAKEATDLGKEAGFPLMFTTEPEE
Binding Pref. [1]: F, W, Y

B4: Agrobacterium tumifaciens ClpS2 C71S: amino acid recognition protein, SEQ ID NO: 3 (protein, listed as Agrobacterium tumifaciens)
chain: MSDSPVDLKPKPKVKPKLERPKLYKVMLLNDDYTPREFVTVVLKAVFRMSEDTGRRVMMTAHRFGSAVVVVSERDIAETKAKEATDLGKEAGFPLMFTTEPEE
Binding Pref. [1]: F, W, Y

B5: Agrobacterium tumifaciens ClpS2 variant 1 C72S: amino acid recognition protein, SEQ ID NO: 5 (protein, listed as Agrobacterium tumifaciens)
chain: MSDSPVDLKPKPKVKPKLERPKLYKVMLLNDDYTPMSFVTVVLKAVFRMSEDTGRRVMMTAHRFGSAVVVVSERDIAETKAKEATDLGKEAGFPLMFTTEPEE
Binding Pref. [1]: F, W, Y

B6: NPEPPS: puromycin-sensitive aminopeptidase, SEQ ID NO: 56 (protein)
chain: MWLAAAAPSLARRLLFLGPPPPPLLLLVFSRSSRRRLHSLGLAAMPEKRPFERLPADVSPINYSLCLKPDLLDFTFEGKLEAAAQVRQATNQIVMNCADIDIITASYAPEGDEEIHATGFNYQNEDEKVTLSFPSTLQTGTGTLKIDFVGELNDKMKGFYRSKYTTPSGEVRYAAVTQFEATDARRAFPCWDEPAIKATFDISLVVPKDRVALSNMNVIDRKPYPDDENLVEVKFARTPVMSTYLVAFVVGEYDFVETRSKDGVCVRVYTPVGKAEQGKFALEVAAKTLPFYKDYFNVPYPLPKIDLIAIADFAAGAMENWGLVTYRETALLIDPKNSCSSSRQWVALVVGHELAHQWFGNLVTMEWWTHLWLNEGFASWIEYLCVDHCFPEYDIWTQFVSADYTRAQELDALDNSHPIEVSVGHPSEVDEIFDAISYSKGASVIRMLHDYIGDKDFKKGMNMYLTKFQQKNAATEDLWESLENASGKPIAAVMNTWTKQMGFPLIYVEAEQVEDDRLLRLSQKKFCAGGSYVGEDCPQWMVPITISTSEDPNQAKLKILMDKPEMNVVLKNVKPDQWVKLNLGTVGFYRTQYSSAMLESLLPGIRDLSLPPVDRLGLQNDLFSLARAGIISTVEVLKVMEAFVNEPNYTVWSDLSCNLGILSTLLSHTDFYEEIQEFVKDVFSPIGERLGWDPKPGEGHLDALLRGLVLGKLGKAGHKATLEEARRRFKDHVEGKQILSADLRSPVYLTVLKHGDGTTLDIMLKLHKQADMQEEKNRIERVLGATLLPDLIQKVLTFALSEEVRPQDTVSVIGGVAGGSKHGRKAAWKFIKDNWEELYNRYQGGFLISRLIKLSVEGFAVDKMAGEVKAFFESHPAPSAERTIQQCCENILLNAAWLKRDAESIHQYLLQRKASPPTV
modifications: Puromycin-sensitive aminopeptidase
HPLC Assay Conv ([2]; substrate LeuTyr 5 mM, 700 nM enzyme, 25 mM HEPES, 1 mM Mg(OAc)2, 1 mM DTT, pH 7.5, 37° C./1 hr): 5%

B7: P. falciparum M1 (protein, listed as Plasmodium falciparum)
chain: PKIHYRKDYKPSGFIINQVTLNINIHDQETIVRSVLDMDISKHNVGEDLVFDGVGLKINEISINNKKLVEGEEYTYDNEFLTIFSKFVPKSKFAFSSEVIIHPETNYALTGLYKSKNIIVSQCEATGFRRITFFIDRPDMMAKYDVTVTADKEKYPVLLSNGDKVNEFEIPGGRHGARFNDPPLKPCYLFAVVAGDLKHLSATYITKYTKKKVELYVFSEEKYVSKLQWALECLKKSMAFDEDYFGLEYDLSRLNLVAVSDFNVGAMENKGLNIFNANSLLASKKNSIDFSYARILTVVGHEYFHQYTGNRVTLRDWFQLTLKEGLTVHRENLFSEEMTKTVTTRLSHVDLLRSVQFLEDSSPLSHPIRPESYVSMENFYTTTVYDKGSEVMRMYLTILGEEYYKKGFDIYIKKNDGNTATCEDFNYAMEQAYKMKKADNSANLNQYLLWFSQSGTPHVSFKYNYDAEKKQYSIHVNQYTKPDENQKEKKPLFIPISVGLINPENGKEMISQTTLELTKESDTFVFNNIAVKPIPSLFRGFSAPVYIEDQLTDEERILLLKYDSDAFVRYNSCTNIYMKQILMNYNEFLKAKNEKLESFQLTPVNAQFIDAIKYLLEDPHADAGFKSYIVSLPQDRYIINFVSNLDTDVLADTKEYIYKQIGDKLNDVYYKMFKSLEAKADDLTYFNDESHVDFDQMNMRTLRNTLLSLLSKAQYPNILNEIIEHSKSPYPSNWLTSLSVSAYFDKYFELYDKTYKLSKDDELLLQEWLKTVSRSDRKDIYEILKKLENEVLKDSKNPNDIRAVYLPFTNNLRRFHDISGKGYKLIAEVITKTDKFNPMVATQLCEPFKLWNKLDTKRQELMLNEMNTMLQEPQISNNLKEYLLRLTNK
HPLC Assay Conv ([2]; substrate MetTyr, 1 mM peptide, 1 mM enzyme, 2.5 mM ZnCl2 25 mM Tris pH 8.0, 30° C./1 hr): 7%

B8: UBR-box domain from Homo sapiens UBR2: amino acid recognition protein, SEQ ID NO: 33 (protein, listed as Homo sapiens)
chain: MGPLGSLCGRVFKVGEPTYSCRDCAVDPTCVLCMECFLGSIHRDHRYRMTTSGGGGFCDCGDTEAWKEGPYCQKHE
Binding Pref. [1]: K, R, H

B9: V. anguillarum APN (protein)
chain: MEEKVWISIGGDATQTALRSGAQSLLPENLINQTSVWVGQVPVSELATLSHEMHENHQRCGGYMVHPSAQSAMSVSAMPLNLNAFSAPEITQQTTVNAWLPSVSAQQITSTITTLTQFKNRFYTTSTGAQASNWIADHWRSLSASLPASKVEQITHSGYNQKSVMLTITGSEKPDEWVVIGGHLDSTLGSRTNESSIAPGADDDASGIAGVTEIIRLLSEQNFRPKRSIAFMAYAAEEVGLRGSQDLANRFKAEGKKVMSVMQLDMTNYQGSREDIVFITDYTDSNFTQYLTQLLDEYLPSLTYGFDTCGYACSDHASWHAVGYPAAMPFESKFNDYNPNIHSPQDTLQNSDPTGFHAVKFTKLGLAYVVEMGNASTPPTPSNQLKNGVPVNGLSASRNSKTWYQFELQEAGNLSIVLSGGSGDADLYVKYQTDADLQQYDCRPYRSGNNETCQFSNAQPGRYSILLHGYNNYSNASLVANAQ
HPLC Assay Conv ([2]; substrate AAPAAP{LYSN3}NH2 (SEQ ID NO: 98), 1 mM peptide, 2 μM enzyme, 2.5 mM ZnCl2, 25 mM Tris pH 8.0, 30° C./1 hr): 50% | HPLC Assay Conv ([2]; substrate KKPKKP{LYSN3}NH2 (SEQ ID NO: 100), 1 mM peptide, 2 μM enzyme, 2.5 mM ZnCl2, 25 mM Tris pH 8.0, 30° C./1 hr): <5% | HPLC Assay Conv ([2]; substrate RRPRRP{LYSN3}NH2 (SEQ ID NO: 96), 1 mM peptide, 2 μM enzyme, 2.5 mM ZnCl2, 25 mM Tris pH 8.0, 30° C./1 hr): >90%

B10: P. horikoshii Tet (protein)
chain: MEVRNMVDYELLKKVVEAPGVSGYEFLGIRDVVIEEIKDYVDEVKVDKLGNVIAHKKGEGPKVMIAAHMDQIGLMVTHIEKNGFLRVAPIGGVDPKTLIAQRFKVWIDKGKFIYGVGASVPPHIQKPEDRKKAPDWDQIFIDIGAESKEEAEDMGVKIGTVITWDGRLERLGKHRFVSIAFDDRIAVYTILEVAKQLKDAKADVYFVATVQEEVGLRGARTSAFGIEPDYGFAIDVTIAADIPGTPEHKQVTHLGKGTAIKIMDRSVICHPTIVRWLEELAKKHEIPYQLEILLGGGTDAGAIHLTKAGVPTGALSVPARYIHSNTEVVDERDVDATVELMTKALENIHELKI
HPLC Assay Conv ([2]; substrate AAPAAP{LYSN3}NH2 (SEQ ID NO: 90), 1 mM peptide, 1 mM enzyme, 2.5 mM ZnCl2, 25 mM Tris pH 8.0, 70° C./1 hr): 100% | HPLC Assay Conv ([2]; substrate DDMDDM{LYSN3}NH2 (SEQ ID NO: 72), 1 mM peptide, 1 mM enzyme, 2.5 mM ZnCl2, 25 mM Tris pH 8.0, 70° C./1 hr): 60% | HPLC Assay Conv ([2]; substrate FFPFFP{LYSN3}NH2 (SEQ ID NO: 94), 1 mM peptide, 1 mM enzyme, 2.5 mM ZnCl2, 25 mM Tris pH 8.0, 70° C./1 hr): 100% | HPLC Assay Conv ([2]; substrate YYPYYP{LYSN3}NH2 (SEQ ID NO: 92), 1 mM peptide, 1 mM enzyme, 2.5 mM ZnCl2, 25 mM Tris pH 8.0, 70° C./1 hr): 100%

B11: Saccharomyces cerevisiae GID10: amino acid recognition protein, SEQ ID NO: 31 (protein, listed as Saccharomyces cerevisiae)
chain: MTSLNIMGRKFILERAKRNDNIEEIYTSAYVSLPSSTDTRLPHFKAKEEDCDVYEEGTNLVGKNAKYTYRSLGRHLDFLRPGLRFGGSQSSKYTYYTVEVKIDTVNLPLYKDSRSLDPHVTGTFTIKNLTPVLDKVVTLFEGYVINYNQFPLCSLHWPAEETLDPYMAQRESDCSHWKRFGHFGSDNWSLTERNFGQYNHESAEFMNQRYIYLKWKERFLLDDEEQENQMLDDNHHLEGASFEGFYYVCLDQLTGSVEGYYYHPACELFQKLELVPTNCDALNTYSSGFEIA
Binding Pref. [1]: P, M, V

B12: VPr pAzF (protein)
chain: MPPITQQATVTAWLPQVDASQITGTISSLESFTNRFYTTTSGAQASDWIASEWQALSASLPNASVKQVSHSGYNQKSVVMTITGSEAPDEWIVIGGHLDSTIGSHTNEQSVAPGADDDASGIAAVTEVIRVLSENNFQPKRSIAFMAYAAEEVGLRGSQDLANQYKSEGKNVVSALQLDMTNYKGSAQDVVFITDYTDSNFTQYLTQLMDEYLPSLTYGFDTCGYACSDHASWHNAGYPAAMPFESKFNDYNPRIHTTQDTLANSDPTGSHAKKFTQLGLAYAIEMGSATGDTPTPGNQ
modifications: non-natural residues
HPLC Assay Conv ([2]; substrate […]{LYSN3}NH2 (SEQ ID NO: 107), 200 μM Peptide, 4 μM enzyme, 10 mM MgCl2, 50 mM MOPS pH 8.0, 37° C./1 hr): 96%
